In test [1] the target is T1, oxidized human plasma low density lipoprotein (oxLDL) with misfolded apolipoprotein B100 (human, UniProt P04114 28-4563).
T1 construct: also called oxidized LDL
In words: direct ELISA, coated ligand, HSP60 concentration series. In general terms: ELISA stands for enzyme-linked immunosorbent assay.

The target in test [2] is T2, fibrin (immobilized, formed from fibrinogen with factor IIa) (UniProt P02671 36-629; P02675 45-491; P02679 27-437).
T2 sequence (looked up) 1: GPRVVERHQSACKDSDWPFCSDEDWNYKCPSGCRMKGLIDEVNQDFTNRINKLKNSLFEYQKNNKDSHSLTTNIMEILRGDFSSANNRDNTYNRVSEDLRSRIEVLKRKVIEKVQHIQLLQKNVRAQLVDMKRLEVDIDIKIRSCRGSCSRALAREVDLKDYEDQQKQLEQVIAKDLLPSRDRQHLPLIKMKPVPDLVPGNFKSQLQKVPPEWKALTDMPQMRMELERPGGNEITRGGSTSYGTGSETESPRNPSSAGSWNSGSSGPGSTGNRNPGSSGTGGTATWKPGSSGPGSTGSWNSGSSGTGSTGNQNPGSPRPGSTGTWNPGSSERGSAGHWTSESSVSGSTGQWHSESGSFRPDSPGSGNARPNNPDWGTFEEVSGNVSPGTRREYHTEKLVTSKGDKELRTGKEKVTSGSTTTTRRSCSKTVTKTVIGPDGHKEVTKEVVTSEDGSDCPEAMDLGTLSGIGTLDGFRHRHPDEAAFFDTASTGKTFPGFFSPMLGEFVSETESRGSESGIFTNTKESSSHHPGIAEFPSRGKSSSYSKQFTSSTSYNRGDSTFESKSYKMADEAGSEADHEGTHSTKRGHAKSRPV
T2 sequence (looked up) 2: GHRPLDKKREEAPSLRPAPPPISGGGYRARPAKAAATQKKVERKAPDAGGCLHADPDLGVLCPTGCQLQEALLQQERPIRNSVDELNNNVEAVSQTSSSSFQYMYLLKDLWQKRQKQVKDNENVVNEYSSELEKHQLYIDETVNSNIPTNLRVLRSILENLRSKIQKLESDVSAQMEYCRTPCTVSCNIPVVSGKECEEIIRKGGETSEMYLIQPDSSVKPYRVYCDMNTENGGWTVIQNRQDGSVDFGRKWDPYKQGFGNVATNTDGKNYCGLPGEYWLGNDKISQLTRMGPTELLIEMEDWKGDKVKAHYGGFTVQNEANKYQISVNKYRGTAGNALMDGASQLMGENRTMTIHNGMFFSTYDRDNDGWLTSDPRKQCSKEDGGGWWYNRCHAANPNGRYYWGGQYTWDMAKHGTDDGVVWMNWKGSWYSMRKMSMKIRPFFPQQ
T2 sequence (looked up) 3: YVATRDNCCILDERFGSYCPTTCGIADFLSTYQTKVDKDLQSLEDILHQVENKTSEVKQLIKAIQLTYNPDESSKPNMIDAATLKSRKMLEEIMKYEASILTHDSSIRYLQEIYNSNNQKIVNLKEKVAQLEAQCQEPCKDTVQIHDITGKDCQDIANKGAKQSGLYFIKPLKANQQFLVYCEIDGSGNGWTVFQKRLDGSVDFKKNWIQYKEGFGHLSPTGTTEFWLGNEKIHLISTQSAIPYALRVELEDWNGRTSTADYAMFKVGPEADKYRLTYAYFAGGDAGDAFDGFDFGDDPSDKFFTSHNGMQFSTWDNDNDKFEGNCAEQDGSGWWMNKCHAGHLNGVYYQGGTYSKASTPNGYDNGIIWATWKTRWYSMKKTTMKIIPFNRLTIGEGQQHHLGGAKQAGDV
In words: direct ELISA, fibrin formed in wells, anti-His-tag detection.

Test [3] addresses T3, synthetic human amyloid-β(1-42) peptide (Aβ42t=0) (human).
T3 construct: also called Aβ1-42
In words: direct ELISA, coated ligand, anti-His-tag detection.

Test [4] deals with recombinant human HSP90beta (human, UniProt P08238 1-724). In words: direct ELISA, coated ligand, HSP90 concentration series.
recombinant human HSP90beta, sequence (P08238 whole entry): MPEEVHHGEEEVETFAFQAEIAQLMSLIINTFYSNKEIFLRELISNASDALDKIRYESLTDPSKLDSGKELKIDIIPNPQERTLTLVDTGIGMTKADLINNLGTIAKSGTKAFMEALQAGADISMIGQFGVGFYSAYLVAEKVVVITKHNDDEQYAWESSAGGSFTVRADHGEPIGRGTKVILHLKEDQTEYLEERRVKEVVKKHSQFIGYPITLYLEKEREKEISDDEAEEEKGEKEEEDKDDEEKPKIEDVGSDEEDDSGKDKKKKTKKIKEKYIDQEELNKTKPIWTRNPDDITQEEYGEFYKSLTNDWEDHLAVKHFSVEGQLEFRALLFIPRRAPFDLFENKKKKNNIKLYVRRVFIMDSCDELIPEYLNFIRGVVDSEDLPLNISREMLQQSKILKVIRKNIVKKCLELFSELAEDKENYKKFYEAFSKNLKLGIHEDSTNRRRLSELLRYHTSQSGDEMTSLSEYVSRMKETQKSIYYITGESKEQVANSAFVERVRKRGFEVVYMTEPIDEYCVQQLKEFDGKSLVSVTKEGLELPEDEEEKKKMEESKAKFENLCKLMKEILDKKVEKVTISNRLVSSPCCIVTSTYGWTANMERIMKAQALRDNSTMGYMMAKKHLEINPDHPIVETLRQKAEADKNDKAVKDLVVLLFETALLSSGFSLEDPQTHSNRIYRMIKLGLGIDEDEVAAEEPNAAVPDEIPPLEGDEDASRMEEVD

T3 sequence (peptide, as listed by the source limits assumed): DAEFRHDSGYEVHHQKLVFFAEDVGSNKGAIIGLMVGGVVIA

B1: recombinant human HSP60 with N-terminal His-tag (other, UniProt P10809 27-573, looked up, not shown: small tags and cut ends)
chain: AKDVKFGADARALMLQGVDLLADAVAVTMGPKGRTVIIEQSWGSPKVTKDGVTVAKSIDLKDKYKNIGAKLVQDVANNTNEEAGDGTTTATVLARSIAKEGFEKISKGANPVEIRRGVMLAVDAVIAELKKQSKPVTTPEEIAQVATISANGDKEIGNIISDAMKKVGRKGVITVKDGKTLNDELEIIEGMKFDRGYISPYFINTSKGQKCEFQDAYVLLSEKKISSIQSIVPALEIANAHRKPLVIIAEDVDGEALSTLVLNRLKVGLQVVAVKAPGFGDNRKNQLKDMAIATGGAVFGEEGLTLNLEDVQPHDLGKVGEVIVTKDDAMLLKGKGDKAQIEKRIQEIIEQLDVTTSEYEKEKLNERLAKLSDGVAVLKVGGTSDVEVNEKKDRVTDALNATRAAVEEGIVLGGGCALLRCIPALDSLTPANEDQKIGIEIIKRTLKIPAMTIAKNAGVEGSLIVEKIMQSSSEVGYDAMAGDFVNMVEKGIIDPTKVVRTALLDAAGVASLLTTAEVVVTEIPKEEKDPGMGAMGGMGGGMGGGMF
notes: mature; also called His-HSP60
On to B1, for which the values for the binding result in test [1], in test [2] and in test [3] were “no binding”, “binds” and “binds”, respectively.

B2: heat-denatured chicken ovalbumin (dOVA standard) (other, UniProt P01012 2-386, looked up)
chain: GSIGAASMEFCFDVFKELKVHHANENIFYCPIAIMSALAMVYLGAKDSTRTQINKVVRFDKLPGFGDSIEAQCGTSVNVHSSLRDILNQITKPNDVYSFSLASRLYAEERYPILPEYLQCVKELYRGGLEPINFQTAADQARELINSWVESQTNGIIRNVLQPSSVDSQTAMVLVNAIVFKGLWEKAFKDEDTQAMPFRVTEQESKPVQMMYQIGLFRVASMASEKMKILELPFASGTMSMLVLLPDEVSGLEQLESIINFEKLTEWTSSNVMEERKIKVYLPRMKMEEKYNLTSVLMAMGITDVFSSSANLSGISSAESLKISQAVHAAHAEINEAGREVVGSAEAGVDAASVSEEFRADHPFLFCIKHIATNAVLFFGRCVSP
notes: also called dOVA std; misfolded hen ovalbumin
On to B2, for which the binding result in test [4] was “no binding”.

For the origin of these results see patent publication US20100015126A1 (published 2010).
